Laboratory results published in paper PMC9753473 (The EMBO Journal, 2022).

B1: Chlamydomonas reinhardtii IFT25(1–136) (domain or fragment, UniProt B8LIX8 1-136, looked up)
chain: MKDYAREENGGLVVMASCSDERFPPENMLDGKDNTFWVTTGMFPQEFVLRLESCIRVSKITTLSLNVRKLAVEKCDQDKPDQFEKVFEVELANRGDRLQTEVHQVNIRAKYLKFILLQGHGEFATVNRVSVVGGDD
B2: Chlamydomonas reinhardtii IFT74(128‐C) (domain or fragment, UniProt Q6RCE1 128-641, looked up)
chain: GVGRQVLDKNYFMNELRQKRMEIAQVTSNMKSDLEALERKQAQYNSMDKRASDLSKEVKILQEALADYNTVLDKVGSQAPVYVIQQEFAALKDRNEQQRKRVDEVLTERLNLESKAKQAESKMSEIQASMDQRLNSMPPSQRNEYTTLVAEQQQLQADSKRFEEVLDELDKALQASEGELARNPFKQRSLQLQEQIRALTEKKYELTEEERQSKRSPEELRADLMAKIKRDNTEVEQMTQQIRELQDQIKKMEERVKSLGGATSGAAAAEEKANREKFEELLAKERDLNNFMDGFPSRKAAKMQEKQQKEDGIVGVLEKMVKMQGIIGSNLPSQKKYKEMQDELEYKKMQLENTQTTQERLKEELTMRRTELEKIDTLEDKIKLELTQLAERQEAMEKEMGEFGSVEDIQRKANAARERMEGLRSVLLKRKDLLRSIVAERGLKFQAKRAQLQDHNLQVQLEKMEAKLKNLSAGVFEMDEFIKAKESETNYRQLASNIAALVDDLNVHVKKAVV
B3: Chlamydomonas reinhardtii IFT46(188–319) (domain or fragment, UniProt A2T2X4 188-319, looked up)
chain: QLRQLSKEAPGAKADMVGRLEHTDENKAKKIQQWIASINDIHKAKPAATVNYSKRMPEIEALMQEWPPEVETFLKTMHMPSGDVELDIKTYARLVCTLLDIPVYDDPVESLHVLFTLYLEFKNNPIFRQHME
B4: Chlamydomonas reinhardtii IFT27 (natural protein)
chain: MVKKEVKPIDITATLRCKVAVVGEATVGKSALISMFTSKGSKFLKDYAMTSGVEVVVAPVTIPDTTVSVELFLLDTAGSDLYKEQISQYWNGVYYAILVFDVSSMESFESCKAWFELLKSARPDRERPLRAVLVANKTDLPPQRHQVRLDMAQDWATTNTLDFFDVSANPPGKDADAPFLSIATTFYRNYEDKVAAFQDACRNY
B5: GST‐tagged CrIFT57(1–234) (domain or fragment, Chlamydomonas reinhardtii, UniProt Q2XQY7 1-234, looked up)
chain: MSSKRGGRSSLAKAPEEAVNGEAFAPEASPPPPGDDGDAGGEDGGAPAPPPPPATKGGPVAVGRSLEIQTTPDVCMEMLADKLKLLNYEADFCRKKKPYRKPLSRLYFAVPLANSSEQFFYFTSLATWLLGLAGVELPAPKEFDDPNLTCQNILGAVKKLGFAPPSYHPTKLTVGNGKEVVGVLDGLVDFVLERRHHKYSRPAYGNDGQPEEGVQLDDEAEAAAMEGADELAMP

What was measured:
[1] = biological target: T1, Chlamydomonas reinhardtii IFT81/74(128‐C) heterodimer (Chlamydomonas reinhardtii, UniProt Q68RJ5 1-683; Q6RCE1 128-641); experiment: cross-linking
T1 sequence (looked up) 1: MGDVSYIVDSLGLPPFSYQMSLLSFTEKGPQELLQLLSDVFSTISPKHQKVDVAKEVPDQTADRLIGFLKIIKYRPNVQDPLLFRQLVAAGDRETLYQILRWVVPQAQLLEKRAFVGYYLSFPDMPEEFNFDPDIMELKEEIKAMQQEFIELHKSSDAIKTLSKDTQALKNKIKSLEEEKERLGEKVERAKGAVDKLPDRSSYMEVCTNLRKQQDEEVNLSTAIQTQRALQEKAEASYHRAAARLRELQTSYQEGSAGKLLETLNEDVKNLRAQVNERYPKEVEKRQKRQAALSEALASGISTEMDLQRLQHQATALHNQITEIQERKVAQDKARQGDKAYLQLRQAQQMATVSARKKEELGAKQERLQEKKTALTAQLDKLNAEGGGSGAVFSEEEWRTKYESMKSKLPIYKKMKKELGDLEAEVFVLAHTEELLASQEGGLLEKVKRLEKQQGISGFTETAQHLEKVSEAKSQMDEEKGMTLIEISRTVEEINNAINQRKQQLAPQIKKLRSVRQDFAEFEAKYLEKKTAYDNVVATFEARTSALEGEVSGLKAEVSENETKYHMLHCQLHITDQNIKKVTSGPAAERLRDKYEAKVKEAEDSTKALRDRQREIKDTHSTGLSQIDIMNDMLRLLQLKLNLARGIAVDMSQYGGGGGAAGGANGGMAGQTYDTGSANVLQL
T1 sequence (looked up) 2: B2 chain

[2] = biological target: T2, Chlamydomonas reinhardtii IFT81 (Chlamydomonas reinhardtii, UniProt Q68RJ5 1-683); experiment: cross-linking
T2 sequence (looked up): T1 sequence (looked up) 1

[3] = biological target: B2; experiment: cross-linking
[4] = biological target: T3, CrIFT172(1–968) (Chlamydomonas reinhardtii, UniProt Q5DM57 1-968); experiment: pull-down
T3 sequence (looked up): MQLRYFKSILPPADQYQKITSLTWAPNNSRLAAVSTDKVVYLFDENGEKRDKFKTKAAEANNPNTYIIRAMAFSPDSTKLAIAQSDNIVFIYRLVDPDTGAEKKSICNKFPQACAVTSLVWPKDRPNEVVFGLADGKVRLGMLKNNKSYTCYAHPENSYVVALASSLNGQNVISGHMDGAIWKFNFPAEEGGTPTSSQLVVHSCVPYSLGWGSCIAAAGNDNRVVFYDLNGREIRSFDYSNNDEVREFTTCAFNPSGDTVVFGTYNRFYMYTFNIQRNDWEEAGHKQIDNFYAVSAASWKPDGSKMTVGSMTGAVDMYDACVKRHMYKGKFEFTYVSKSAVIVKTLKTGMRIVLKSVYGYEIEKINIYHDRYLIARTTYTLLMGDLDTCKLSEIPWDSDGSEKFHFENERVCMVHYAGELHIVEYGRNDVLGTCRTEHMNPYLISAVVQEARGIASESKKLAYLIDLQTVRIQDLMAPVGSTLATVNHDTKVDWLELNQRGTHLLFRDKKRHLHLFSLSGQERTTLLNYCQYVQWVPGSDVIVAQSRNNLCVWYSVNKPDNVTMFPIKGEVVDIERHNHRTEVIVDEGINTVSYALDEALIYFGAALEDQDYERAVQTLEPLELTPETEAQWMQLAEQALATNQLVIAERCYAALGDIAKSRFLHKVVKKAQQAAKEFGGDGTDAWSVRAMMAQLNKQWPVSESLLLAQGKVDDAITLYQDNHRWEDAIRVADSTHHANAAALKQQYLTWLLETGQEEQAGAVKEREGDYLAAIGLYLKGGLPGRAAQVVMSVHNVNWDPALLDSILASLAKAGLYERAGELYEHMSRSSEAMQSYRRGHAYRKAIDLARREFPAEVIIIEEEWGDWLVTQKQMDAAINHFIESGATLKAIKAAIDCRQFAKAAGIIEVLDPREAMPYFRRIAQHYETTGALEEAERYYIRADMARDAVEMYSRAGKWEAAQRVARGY

B1
binding result [1]: binds

B2
binding result [2]: binds

B3
binding result [3]: binds | binding result [2]: binds

B4
binding result [1]: binds

B5
binding result [4]: binds
